Results from article PMC3440434, “Efficient Antifouling Surface for Quantitative Surface Plasmon Resonance Based Biosensor Analysis”.

Key:
[1] = molecular target: T1, PFV-1 IN (integrase) (PFV-1, UniProt P14350 752-1143); experiment: SPR imaging; KD1, fast phase of two-phase fit; 200 nM IN; ka1 2.2e5 M-1s-1, kd1 5.8e-3 s-1; 10 mM MgCl2; 20 mM Hepes pH 8, 10 mM MgCl2, 100 mM NaCl, 25 ul/min; EG4-pretreated gold SPRi surface; temperature not given; details: protein: recombinant; label: none (immobilized on gold via 5' thiol); 5' overhang 5 nt (T5 spacer) on strand 1, other end blunt
[2] = molecular target: T1, PFV-1 IN (integrase); experiment: SPR imaging; 4 nM IN, monophasic; 5 uM dsDNA spots; ka 3.7e6 M-1s-1, kd 1.8e-3 s-1; text prints 4.9e-9 M but the rates give 4.9e-10; 10 mM MgCl2; 20 mM Hepes pH 8, 10 mM MgCl2, 100 mM NaCl, 25 ul/min; EG4-pretreated gold SPRi surface; temperature not given; details: protein: recombinant; label: none (immobilized on gold via 5' thiol); 5' overhang 5 nt (T5 spacer) on strand 1, other end blunt

B1: SH-5T-dsDNA (random 38 bp) (dsDNA)
DNA 1: TTTTTCTAAGCTAGAAGATTACTCCAAGTACATAATCTAAAAT
DNA 2: ATTTTAGATTATGTACTTGGAGTAATCTTCTAGCTTAG
modifications: 5' thiol-C6 on strand 1
Kd [1]: 26 nM
Kd [2]: 0.49 nM
